How the values were obtained:
[1] = biological target: T1, cathepsin B (Homo sapiens, UniProt P07858); experiment: Binding kinetics by biolayer interferometry, Fabs on cathepsin B; details: Fab, read-out: Binding Affinity KD
T1 construct: human cathepsin B (residue 66-339); hexahistidine (C); made in house; host or cells: E. coli (periplasm)
Protocol: Binding kinetics of produced antibodies towards associated protease targets were analyzed by using biolayer interferometry (ForteBio). For Fabs, biotinylated proteases were immobilized on streptavidin biosensors, and Fab binding to the sensors in absence of protease was monitored as backgrounds. For IgGs, protein A sensors were used and protease bindings without IgG were checked as backgrounds. kon and koff were determined for KD calculations. […] Fab in vitro stability was tested by incubating 1 μM Fab with 1 μM of the respective protease in the assay buffer for 12 hours and the samples were analyzed by SDS-PAGE.

[2] = biological target: T1, cathepsin B; experiment: FRET peptide inhibition assay, cathepsin B (M-2595); type: biochemical; details: Fab; for Ki: cathepsin B, FRET peptide, read-out: Inhibition Potency KI
Protocol: (§3) For inhibition tests, 1 μM Fabs were 2-fold serially diluted into protease specific assay buffer and incubated with 1-10 nM proteases for 30 min at room temperature. […] Inhibition percentages at given concentrations were calculated by comparing the initial reaction rates in the presence or absence of inhibitor. IC50 was determined as the concentration that achieved 50% inhibition, and KI values were calculated using KI=IC50/(S/Km+1). Vmax and Km at various Fab concentrations were measured to determine the inhibition type. FRET inhibition assays were also used for selectivity tests of isolated Fabs with the relevant proteases.

[3] = biological target: T2, cathepsin K (Homo sapiens, UniProt P43235); experiment: FRET inhibition selectivity test, cathepsin K; type: biochemical; details: same Fab concentrations as for cathepsin B
T2 construct: hexahistidine (C); made in house; host or cells: E. coli (periplasm)
T2 sequence (P43235 115-329): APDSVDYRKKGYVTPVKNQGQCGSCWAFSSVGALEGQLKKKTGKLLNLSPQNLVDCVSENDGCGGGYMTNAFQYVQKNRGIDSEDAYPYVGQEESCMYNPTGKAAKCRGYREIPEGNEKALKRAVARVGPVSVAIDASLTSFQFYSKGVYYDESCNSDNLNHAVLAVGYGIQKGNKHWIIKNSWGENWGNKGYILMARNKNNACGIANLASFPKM
Protocol: as §3

[4] = tested on: HEK293F cells expressing APP571-696; experiment: Aβ40 formation in HEK293F cells expressing APP571-696 (ELISA); type: cell-based; details: HEK293 cells expressing APP, IgG 72 h, dose-dependent
Protocol: For amyloid precursor protein (APP) degradation studies, APP571-696 was cloned to the C-terminal of maltose binding protein (MBP) for E. coli expression and purified using amylose resin (NEB). 5 μM purified MBP-APP was incubated with 1 μM BACE1-Fc in the absence or presence of 1 μM IgG in BACE1 assay buffer at 37° C. for 24 h. In addition, APP571-696 was cloned to a pcDNA plasmid carrying a SPE leader for secretion expression. Transfected HEK293F cells were cultured in Expi293 media for 72 hrs with the presence of 14-800 nM purified IgG. The supernatants were clarified by centrifugation and 0.45 μm filtration, and produced Aβ1-40 was quantified by ELISA (Abcam).

[5] = biological target: T3, cdMMP-12 mutant D4 (Homo sapiens, UniProt P39900, A167E/A173P/A252Q/H206S/I245T/K233R/M156E/N119Q/N126H/R135E/T215V/V161I/Y113D/Y132K); experiment: FRET peptide inhibition assay, cdMMP-12 D4; type: biochemical; details: cdMMP-12 D4, FRET peptide, 31-500 nM Fab
T3 construct: hexahistidine (C); made in house; host or cells: E. coli BL21, pET32b (cytoplasmic, soluble fraction)
Protocol: (§1) FRET peptide inhibition assays In 96-well assay plates (Corning), 60/250/350/10/10/30 nM of (cd)MMP-1/-7/-9/-12 D4/-12 wt/-14 were preincubated with 1 nM-1 μM purified Fabs for 30 min at room temperature then 1 μM substrate M-2350 (Bachem) was added. Generated fluorescent signals (λEx=328 nm, λEm=393 nm) were monitored at 37° C. to measure the initial velocities. To calculate inhibition constants (KIs), data were fit with the equations for slow tight-binding inhibitors. The inhibition type of the Fabs was determined using the initial velocities of cdMMP-12 D4 as a function of substrate concentration (250-2000 nM) at various Fab concentrations (31-500 nM). The values of Vmax and Km were derived from linearization in accordance with the Lineweaver-Burk equation.

[6] = biological target: T4, cdMMP-12 wt (Homo sapiens, UniProt P39900); experiment: FRET peptide inhibition assay, cdMMP-12 wt; type: biochemical; details: toward cdMMP-12 wild type
T4 construct: hexahistidine (C); made in house; host or cells: E. coli BL21 (pET32b, cytoplasmic)
Protocol: as §1

[7] = biological target: T4, cdMMP-12 wt; experiment: Elastin-FITC hydrolysis inhibition, cdMMP-12 wt; type: biochemical; details: 7 nM wt cdMMP-12, 37° C., 12 h
Protocol: Inhibition tests with macromolecular substrates 10 μg/mL FITC-conjugated elastin (AnaSpec) was incubated with 7 nM cdMMP-12 D4/wt and 2-2000 nM purified Fab in 50 mM Tris-HCl, 150 mM NaCl, 5 mM CaCl2), 100 μM ZnCl2 pH 7.5. Generated fluorescent signals were measured at 12 h with λEx of 490 nm and λEm of 520 nm. For inhibition assays on fibronectin, 200 nM fibronectin (Corning) was incubated with 200-350 nM cdMMP-12 wt and 2 μM GM6001 or 0.1-6 μM Fabs in 50 mM HEPES, 150 mM NaCl pH 7.5 at 37° C. for 2-4 h. The samples were separated on 5% non-reducing SDS-PAGE and analyzed by western blotting with anti-Fibronectin antibody (Abcam) and chemiluminescent substrate (Thermo Scientific). For inhibition assays on modified TEM-1 carrying cleavable sequence ([…] (SEQ ID NO:134)) and a N-terminal HA tag, 250 nM modified TEM-1 was incubated with 700 nM cdMMP-12 wt and 10 μM Fabs in 50 mM HEPES, 150 mM NaCl pH 7.5 at 37° C. for 4 h. The samples were separated on 12% non-reducing SDS-PAGE, and the modified TEM-1 was visualized by western blotting using anti-HA antibody (Invitrogen) and chemiluminescent substrate. Assays without cdMMP-12s or Fabs were performed as controls.

[8] = biological target: T4, cdMMP-12 wt; experiment: Fibronectin proteolysis inhibition, cdMMP-12 wt (western blot); type: biochemical; details: 6 μM Fab; 350 nM wt cdMMP-12, 200 nM fibronectin, 37° C.
Protocol: Inhibition tests with macromolecular substrates 10 μg/mL FITC-conjugated elastin (AnaSpec) was incubated with 7 nM cdMMP-12 D4/wt and 2-2000 nM purified Fab in 50 mM Tris-HCl, 150 mM NaCl, 5 mM CaCl2), 100 μM ZnCl2 pH 7.5. Generated fluorescent signals were measured at 12 h with λEx of 490 nm and λEm of 520 nm. […] The samples were separated on 5% non-reducing SDS-PAGE and analyzed by western blotting with anti-Fibronectin antibody (Abcam) and chemiluminescent substrate (Thermo Scientific). […] Assays without cdMMP-12s or Fabs were performed as controls.

[9] = biological target: T5, MMP-1 (Homo sapiens, UniProt P03956); experiment: FRET peptide inhibition assay, MMP-1; type: biochemical
T5 construct: purchased AnaSpec
T5 sequence (P03956 100-469): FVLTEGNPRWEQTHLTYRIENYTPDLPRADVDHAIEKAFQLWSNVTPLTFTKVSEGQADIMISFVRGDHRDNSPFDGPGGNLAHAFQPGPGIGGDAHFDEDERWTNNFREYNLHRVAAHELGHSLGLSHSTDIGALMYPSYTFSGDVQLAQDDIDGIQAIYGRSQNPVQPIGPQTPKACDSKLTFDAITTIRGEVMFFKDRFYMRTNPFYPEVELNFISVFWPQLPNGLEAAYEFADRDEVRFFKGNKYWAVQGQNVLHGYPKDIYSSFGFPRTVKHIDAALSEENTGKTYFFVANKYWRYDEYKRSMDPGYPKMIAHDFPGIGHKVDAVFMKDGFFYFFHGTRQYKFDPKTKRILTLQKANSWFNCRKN
Protocol: as §1

[10] = biological target: T6, MMP-7 (Homo sapiens, UniProt P09237); experiment: FRET peptide inhibition assay, MMP-7; type: biochemical
T6 construct: purchased AnaSpec
T6 sequence (P09237 95-267): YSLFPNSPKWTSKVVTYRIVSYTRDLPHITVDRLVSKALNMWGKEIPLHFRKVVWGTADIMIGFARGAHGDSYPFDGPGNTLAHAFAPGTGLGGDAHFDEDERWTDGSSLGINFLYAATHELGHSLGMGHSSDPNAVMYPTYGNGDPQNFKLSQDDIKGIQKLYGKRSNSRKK
Protocol: as §1

[11] = biological target: cdMMP-9; experiment: FRET peptide inhibition assay, cdMMP-9 (Example 2); type: biochemical; details: FRET peptide; read-out: K1 toward cdMMP-9
Protocol: as §1

[12] = biological target: cdMMP-9; experiment: Bio-layer interferometry on cdMMP-9; type: binding; details: read-out: KD toward cdMMP-9
[13] = biological target: T3, cdMMP-12 mutant D4; experiment: Proteolytic stability of Fabs with cdMMP-12 D4; type: physicochemical; details: 2 μM Fab, 2 μM cdMMP-12 D4, 4 h, 37° C.
Protocol: (§2) Proteolytic stability tests 2 μM purified Fabs were incubated with 2 μM cdMMP-12 wt/D4 in 50 mM HEPES, 150 mM NaCl pH 7.5 at 37° C. for 4 h. Samples were analyzed by using 12% non-reducing SDS-PAGE and stained with Coomassie blue. Densitometric interpretation was conducted using a ChemiDoc imager (Bio-Rad).

[14] = biological target: T4, cdMMP-12 wt; experiment: Proteolytic stability of Fabs with cdMMP-12 wt; type: physicochemical; details: 2 μM Fab, 2 μM cdMMP-12 wt, 4 h, 37° C.
Protocol: as §2

[15] = biological target: cdMMP-14 (Homo sapiens, UniProt P50281); experiment: Bio-layer interferometry on cdMMP-14; type: binding; design: human MMP-14 (residue 114-320); hexahistidine (C); made in house; host or cells: E. coli periplasm; details: read-out: KD toward cdMMP-14

T4 sequence (P39900 106-263): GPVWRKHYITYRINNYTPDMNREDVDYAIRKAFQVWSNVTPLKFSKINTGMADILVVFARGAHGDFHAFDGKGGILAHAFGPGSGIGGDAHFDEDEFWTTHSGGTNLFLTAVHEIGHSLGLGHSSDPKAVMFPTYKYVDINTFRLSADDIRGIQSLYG
cdMMP-9, sequence (P14780 with tags, fused parts or gaps DEL216-390 limits assumed): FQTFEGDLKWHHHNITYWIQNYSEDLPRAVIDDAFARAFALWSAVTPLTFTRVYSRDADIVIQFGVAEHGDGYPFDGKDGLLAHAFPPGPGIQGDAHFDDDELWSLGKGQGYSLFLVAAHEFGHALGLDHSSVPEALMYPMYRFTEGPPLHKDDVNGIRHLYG
T3 sequence (P39900 106-263 Y113D/N119Q/N126H/Y132K/R135E/M156E/V161I/A167E/A173P/H206S/T215V/K233R/I245T/A252Q): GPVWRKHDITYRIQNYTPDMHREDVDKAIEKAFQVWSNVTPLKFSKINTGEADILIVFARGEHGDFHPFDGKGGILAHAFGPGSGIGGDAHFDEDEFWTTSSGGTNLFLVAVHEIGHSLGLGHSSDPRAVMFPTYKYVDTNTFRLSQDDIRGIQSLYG

B1: Fab CBA2: anti-cathepsin B antibody clone; VL SEQ ID NO:108, VH SEQ ID NO:81, CDR-H3 SEQ ID NO:84 (antibody, V domains shown)
VH: EVQLVESGGGLVQPGGSLRLSCAASGFNIYYYSIHWVRQAPGKGLEWVAYIYSYYGSTYYADSVKGRFTISADTSKNTAYLQMNSLRAEDTAVYYCARYGYPGGYHFWGWWSSPYAFDYWGQGTLVTVSSAS
VL: DIQMTQSPSSLSASVGDRVTITCRASQSVSSAVAWYQQKPGKAPKLLIYSASSLYSGVPSRFSGSRSGTDFTLTISSLQPEDFATYYCQQWSSSWGYLITFGQGTKVEIKR
Kd [1]: 0.19 µM
Inhibition of cathepsin B (in words) [2]: inhibited cathepsin B completely
Ki [2]: 0.13 µM
Inhibition of cathepsin K (selectivity) [3]: but not cathepsin K

B2: Fab CBA1: anti-cathepsin B antibody clone; VL SEQ ID NO:110, VH SEQ ID NO:85, CDR-H3 SEQ ID NO:87 (antibody, V domains shown)
VH: EVQLVESGGGLVQPGGSLRLSCAASGFNLYSSYIHWVRQAPGKGLEWVASIYPYSSSTSYADSVKGRFTISADTSKNTAYLQMNSLRAEDTAVYYCARGGGSWSAMDYWGQGTLVTVSSAS
VL: DIQMTQSPSSLSASVGDRVTITCRASQSVSSAVAWYQQKPGKAPKLLIYSASSLYSGVPSRFSGSRSGTDFTLTISSLQPEDFATYYCQQHYSLITFGQGTKVEIKR
Kd [1]: 0.29 µM
Inhibition of cathepsin B (in words) [2]: inhibited cathepsin B completely
Ki [2]: 0.2 µM
Inhibition of cathepsin K (selectivity) [3]: but not cathepsin K

B3: IgG B2B2: anti-BACE1 IgG of clone B2B2 (antibody, V domains shown)
VH: EVQLVESGGGLVQPGGSLRLSCAASGFNISSYYMHWVRQAPGKGLEWVASIYSSYGYTYYADSVKGRFTISADTSKNTAYLQMNSLRAEDTAVYYCARYWGYYAWFGSHPWAYGAFDYWGQGTLVTVSSAS
VL: DIQMTQSPSSLSASVGDRVTITCRASQSVSSAVAWYQQKPGKAPKLLIYSASSLYSGVPSRFSGSRSGTDFTLTISSLQPEDFATYYCQQYGYYLITFGQGTKVEIKR
Reduction of amyloid beta (Aβ40) production [4]: 80%

B4: Fab LH11: anti-MMP-12 antibody clone; VL SEQ ID NO:124, VH SEQ ID NO:126, CDR-H3 SEQ ID NO:129 (antibody, V domains shown)
VH: EVQLVESGGGLVQPGGSLRLSCAASGFNLSYYSMHWVRQAPGKGLEWVAYIYPYYGSTYYADSVKGRFTISADTSKNTAYLQMNSLRAEDTAVYYCARFLLSIGKLFVGDGSILHVWLYGMDYWGQGTLVTVSSAS
VL: DIQMTQSPSSLSASVGDRVTITCRASQSVSSAVAWYQQKPGKAPKLLIYSASSLYSGVPSRFSGSRSGTDFTLTISSLQPEDFATYYCQQAYYGYLFTFGQGTKVEIKR
Type of inhibition (Lineweaver-Burk) [5]: substrate competitive manner
Inhibition FRET peptide [6]: non-
Inhibition of elastin-FITC hydrolysis ([7]; 2 nM Fab): 0%
Inhibition of elastin-FITC hydrolysis ([7]; 16 nM Fab): 49%
Inhibition of elastin-FITC hydrolysis ([7]; 63 nM Fab): 62%
Inhibition of elastin-FITC hydrolysis ([7]; 500 nM Fab): 86%
Fibronectin remaining after cdMMP-12 wt hydrolysis [8]: significant amounts of fibronectin remained
Inhibition of MMP-1 (selectivity) [9]: did not inhibit and non-
Inhibition of MMP-7 (selectivity) [10]: did not inhibit and non-
Ki [11]: 6.2 µM
Kd [12]: 0.74 µM
Degradation of Fab by cdMMP-12 D4 [13]: no significant degradation
Fab remained intact after exposure to cdMMP-12 wt [14]: 67%
Kd [15]: ~0.7 µM

From US11332546B2, “Protease inhibitory antibodies and methods of use thereof” (The Regents of The University of California, priority 2019, dated 2022)
